# B1: Fab VH5-51_IGHD5-18*01>3_IGHJ4*01 G100K/G104T G24L & V3-4_IGLJ1*01 (Fab, V domains shown)
# VH: EVQLVQSGAEVKKPGESLKISCKLSGYSFTSYWIGWVRQMPGKGLEWMGIIYPGDSDTRYSPSFQGQVTISADKSISTAYLQWSSLKASDTAMYYCARRKYSYTYDYFDYWGQGTLVTVSS
# VL: QTVVTQEPSFSVSPGGTVTLTCGLSSGSVSTSYYPSWYQQTPGQAPRTLIYSTNTRSSGVPDRFSGSILGNKAALTITGAQADDESDYYCVLYMGSGISYVFGTGTKVTVL
# notes: Fab made in E. coli; also called KT G24L
# B2: Fab VH5-51_IGHD5-18*01>3_IGHJ4*01 G100K/G104T (KT) & V3-4_IGLJ1*01 S52C (Fab, V domains shown)
# VH: EVQLVQSGAEVKKPGESLKISCKGSGYSFTSYWIGWVRQMPGKGLEWMGIIYPGDSDTRYSPSFQGQVTISADKSISTAYLQWSSLKASDTAMYYCARRKYSYTYDYFDYWGQGTLVTVSS
# VL: QTVVTQEPSFSVSPGGTVTLTCGLSSGSVSTSYYPSWYQQTPGQAPRTLIYCTNTRSSGVPDRFSGSILGNKAALTITGAQADDESDYYCVLYMGSGISYVFGTGTKVTVL
# notes: Tested as a Fab (VH-CH1 with His and Flag tags, lambda VL-CL); also called H:KT & L:S52C
# B3: Fab VH5-51_IGHD5-18*01>3_IGHJ4*01 G100K/G104T (KT) & V3-4_IGLJ1*01 R56D (Fab, V domains shown)
# VH: EVQLVQSGAEVKKPGESLKISCKGSGYSFTSYWIGWVRQMPGKGLEWMGIIYPGDSDTRYSPSFQGQVTISADKSISTAYLQWSSLKASDTAMYYCARRKYSYTYDYFDYWGQGTLVTVSS
# VL: QTVVTQEPSFSVSPGGTVTLTCGLSSGSVSTSYYPSWYQQTPGQAPRTLIYSTNTDSSGVPDRFSGSILGNKAALTITGAQADDESDYYCVLYMGSGISYVFGTGTKVTVL
# notes: Fab; also called H:KT & L:R56D
# B4: Fab VH5-51_IGHD5-18*01>3_IGHJ4*01 G100K/G104T I51A & V3-4_IGLJ1*01 (Fab, V domains shown)
# VH: EVQLVQSGAEVKKPGESLKISCKGSGYSFTSYWIGWVRQMPGKGLEWMGIAYPGDSDTRYSPSFQGQVTISADKSISTAYLQWSSLKASDTAMYYCARRKYSYTYDYFDYWGQGTLVTVSS
# VL: QTVVTQEPSFSVSPGGTVTLTCGLSSGSVSTSYYPSWYQQTPGQAPRTLIYSTNTRSSGVPDRFSGSILGNKAALTITGAQADDESDYYCVLYMGSGISYVFGTGTKVTVL
# notes: Tested as Fab; CH1 with His6/Flag tags (plasmid A) and lambda CL (plasmid E) come from the expression vectors; also called KT I51A
# B5: Fab VH5-51_IGHD5-18*01>3_IGHJ4*01 G100K/G104T (KT) & V3-4_IGLJ1*01 R56G (Fab, V domains shown)
# VH: EVQLVQSGAEVKKPGESLKISCKGSGYSFTSYWIGWVRQMPGKGLEWMGIIYPGDSDTRYSPSFQGQVTISADKSISTAYLQWSSLKASDTAMYYCARRKYSYTYDYFDYWGQGTLVTVSS
# VL: QTVVTQEPSFSVSPGGTVTLTCGLSSGSVSTSYYPSWYQQTPGQAPRTLIYSTNTGSSGVPDRFSGSILGNKAALTITGAQADDESDYYCVLYMGSGISYVFGTGTKVTVL
# notes: Fab; also called H:KT & L:R56G
# B6: Fab VH5-51_IGHD5-18*01>3_IGHJ4*01 G100K/G104T (KT) & V3-4_IGLJ1*01 S52R (Fab, V domains shown)
# VH: EVQLVQSGAEVKKPGESLKISCKGSGYSFTSYWIGWVRQMPGKGLEWMGIIYPGDSDTRYSPSFQGQVTISADKSISTAYLQWSSLKASDTAMYYCARRKYSYTYDYFDYWGQGTLVTVSS
# VL: QTVVTQEPSFSVSPGGTVTLTCGLSSGSVSTSYYPSWYQQTPGQAPRTLIYRTNTRSSGVPDRFSGSILGNKAALTITGAQADDESDYYCVLYMGSGISYVFGTGTKVTVL
# notes: Tested as a Fab (VH-CH1 with His and Flag tags, lambda VL-CL); also called H:KT & L:S52R
# B7: Fab VH5-51_IGHD5-18*01>3_IGHJ4*01 G100K/G104T (KT) & V3-4_IGLJ1*01 R56I (Fab, V domains shown)
# VH: EVQLVQSGAEVKKPGESLKISCKGSGYSFTSYWIGWVRQMPGKGLEWMGIIYPGDSDTRYSPSFQGQVTISADKSISTAYLQWSSLKASDTAMYYCARRKYSYTYDYFDYWGQGTLVTVSS
# VL: QTVVTQEPSFSVSPGGTVTLTCGLSSGSVSTSYYPSWYQQTPGQAPRTLIYSTNTISSGVPDRFSGSILGNKAALTITGAQADDESDYYCVLYMGSGISYVFGTGTKVTVL
# notes: Tested as a Fab (VH-CH1 with His and Flag tags, lambda VL-CL); also called H:KT & L:R56I
# B8: Fab VH5-51_IGHD5-18*01>3_IGHJ4*01 G100K/G104T P53A & V3-4_IGLJ1*01 (Fab, V domains shown)
# VH: EVQLVQSGAEVKKPGESLKISCKGSGYSFTSYWIGWVRQMPGKGLEWMGIIYAGDSDTRYSPSFQGQVTISADKSISTAYLQWSSLKASDTAMYYCARRKYSYTYDYFDYWGQGTLVTVSS
# VL: QTVVTQEPSFSVSPGGTVTLTCGLSSGSVSTSYYPSWYQQTPGQAPRTLIYSTNTRSSGVPDRFSGSILGNKAALTITGAQADDESDYYCVLYMGSGISYVFGTGTKVTVL
# notes: Tested as Fab; CH1 with His6/Flag tags (plasmid A) and lambda CL (plasmid E) come from the expression vectors; also called KT P53A
# B9: Fab VH5-51_IGHD5-18*01>3_IGHJ4*01 G100K/G104T G24R & V3-4_IGLJ1*01 (Fab, V domains shown)
# VH: EVQLVQSGAEVKKPGESLKISCKRSGYSFTSYWIGWVRQMPGKGLEWMGIIYPGDSDTRYSPSFQGQVTISADKSISTAYLQWSSLKASDTAMYYCARRKYSYTYDYFDYWGQGTLVTVSS
# VL: QTVVTQEPSFSVSPGGTVTLTCGLSSGSVSTSYYPSWYQQTPGQAPRTLIYSTNTRSSGVPDRFSGSILGNKAALTITGAQADDESDYYCVLYMGSGISYVFGTGTKVTVL
# notes: Fab made in E. coli; also called KT G24R
# B10: Fab VH5-51_IGHD5-18*01>3_IGHJ4*01 G100K/G104T S28K & V3-4_IGLJ1*01 (Fab, V domains shown)
# VH: EVQLVQSGAEVKKPGESLKISCKGSGYKFTSYWIGWVRQMPGKGLEWMGIIYPGDSDTRYSPSFQGQVTISADKSISTAYLQWSSLKASDTAMYYCARRKYSYTYDYFDYWGQGTLVTVSS
# VL: QTVVTQEPSFSVSPGGTVTLTCGLSSGSVSTSYYPSWYQQTPGQAPRTLIYSTNTRSSGVPDRFSGSILGNKAALTITGAQADDESDYYCVLYMGSGISYVFGTGTKVTVL
# notes: Fab made in E. coli; also called KT S28K
# B11: Fab VH5-51_IGHD5-18*01>3_IGHJ4*01 G100K/G104T (KT) & V3-4_IGLJ1*01 R56A (Fab, V domains shown)
# VH: EVQLVQSGAEVKKPGESLKISCKGSGYSFTSYWIGWVRQMPGKGLEWMGIIYPGDSDTRYSPSFQGQVTISADKSISTAYLQWSSLKASDTAMYYCARRKYSYTYDYFDYWGQGTLVTVSS
# VL: QTVVTQEPSFSVSPGGTVTLTCGLSSGSVSTSYYPSWYQQTPGQAPRTLIYSTNTASSGVPDRFSGSILGNKAALTITGAQADDESDYYCVLYMGSGISYVFGTGTKVTVL
# notes: Fab; also called H:KT & L:R56A
# B12: Fab VH5-51_IGHD5-18*01>3_IGHJ4*01 G100K/G104T I50A & V3-4_IGLJ1*01 (Fab, V domains shown)
# VH: EVQLVQSGAEVKKPGESLKISCKGSGYSFTSYWIGWVRQMPGKGLEWMGAIYPGDSDTRYSPSFQGQVTISADKSISTAYLQWSSLKASDTAMYYCARRKYSYTYDYFDYWGQGTLVTVSS
# VL: QTVVTQEPSFSVSPGGTVTLTCGLSSGSVSTSYYPSWYQQTPGQAPRTLIYSTNTRSSGVPDRFSGSILGNKAALTITGAQADDESDYYCVLYMGSGISYVFGTGTKVTVL
# notes: Tested as Fab; CH1 with His6/Flag tags (plasmid A) and lambda CL (plasmid E) come from the expression vectors; also called KT I50A
# Assays:
# [1] = molecular target: T1, Recombinant Human DLL4 (delta-like protein 4) (human, UniProt Q9NR61 27-524); test: ELISA, DLL4-coated plate, Fab in solution
# T1 construct: Bought recombinant human DLL4 (R&D Systems Cat#1506-D4/CF); also called rHuman DLL4; Delta-like 4
# [2] = molecular target: T1, Recombinant Human DLL4 (delta-like …); test: ECL (MSD) binding assay, DLL4 on plate, Fab in solution
# [3] = molecular target: T2, Recombinant Human DLL4 (delta-like protein 4) (human, UniProt Q9NR61 27-524); test: ELISA, Fab on plate-coated DLL4
# T2 construct: Bought recombinant human DLL4 (R&D Systems Cat#1506-D4/CF); also called rHuman DLL4; Delta-like 4
# [4] = molecular target: T2, Recombinant Human DLL4 (delta-like …); test: ECL (MSD) binding assay, Fab on immobilized DLL4
# [5] = molecular target: T3, Recombinant Human DLL4 (delta-like protein 4) (human, UniProt Q9NR61 27-524); test: ECL (MSD) binding assay, Fab on immobilised recombinant human DLL4
# T3 construct: also called rHuman DLL4; Delta-like 4
# [6] = molecular target: T3, Recombinant Human DLL4 (delta-like …); test: ELISA, Fab on coated DLL4, absorbance at 450 nm
# [7] = molecular target: T4, Recombinant Human DLL4 (R&D Systems Cat#1506-D4/CF) (human, UniProt Q9NR61 27-524); test: ELISA, Fab on plate-coated DLL4, absorbance at 450 nm
# T4 construct: also called rHuman DLL4; delta-like protein 4
# [8] = molecular target: T4, Recombinant Human DLL4 (R&D Systems …); test: ECL (MSD) multispot binding assay, Fab on immobilized recombinant human DLL4
# [9] = molecular target: T3, Recombinant Human DLL4 (delta-like …); test: ELISA on coated DLL4, Fab at 3.125 nM (2-fold serial dilution)
# [10] = molecular target: T3, Recombinant Human DLL4 (delta-like …); test: ELISA on coated DLL4, Fab at 50 nM (2-fold serial dilution)
# [11] = molecular target: T3, Recombinant Human DLL4 (delta-like …); test: ELISA on coated DLL4, Fab at 6.25 nM (2-fold serial dilution)
# [12] = molecular target: T3, Recombinant Human DLL4 (delta-like …); test: ELISA on coated DLL4, Fab at 25 nM (2-fold serial dilution)
# [13] = molecular target: T3, Recombinant Human DLL4 (delta-like …); test: ELISA on coated DLL4, Fab at 100 nM (2-fold serial dilution)
# [14] = molecular target: T3, Recombinant Human DLL4 (delta-like …); test: ELISA on coated DLL4, Fab at 12.5 nM (2-fold serial dilution)
binder,measurement,setting,value
B1,ELISA (Signal-Noise),[1],0.09
same,ECL signal,[2],19600
B2,ELISA signal,[3],0.1
same,ECL signal,[4],64300
B3,ECL signal,[5],87400
same,ELISA signal,[6],0.19
B4,ELISA (Signal-Noise),[7],0.01
same,ECL Signal/Blank,[8],30.6
B5,ECL signal,[5],93700
same,ELISA signal,[6],0.19
B6,ELISA signal,[3],0.15
same,ECL signal,[4],85900
B7,ELISA signal,[3],0.13
same,ECL signal,[4],94300
B8,ELISA (Signal-Noise),[7],0
same,ECL Signal/Blank,[8],57.7
B9,ELISA (Signal-Noise),[1],0.06
same,ECL signal,[2],4200
B10,ELISA (Signal-Noise),[1],0.28
same,ECL signal,[2],32300
B11,ELISA signal,[9],0.213
same,ELISA signal,[10],0.239
same,ELISA signal,[11],0.2
same,ELISA signal,[12],0.227
same,ECL signal,[5],83900
same,ELISA signal,[13],0.251
same,ELISA signal,[6],0.27
same,ELISA signal,[14],0.212
B12,ELISA (Signal-Noise),[7],0.02
same,ECL Signal/Blank,[8],40.9
